In patent US20230226096A1 (Orna Therapeutics, Inc., priority 2020, published 2023):
Numbering of substitutions follows the chain as printed.

B1: Posavirus 1 (nucleic acid)
DNA: ACATTTCCTTGCGTGCGCACCCGAAAATTTATTGAACTTGGCTTGAATCATAAGTAATGCTTCTTATAGCGGACACTTTGAGAATATAATGCTTGTATGGATTAATGTATACTGTTTTAAATAACAAACCTAGACACGCAGTTGCGTTGATGGTTGTATCAATCACATATAAGTGTTGAACTCGTGTTAATCCTCGATCGCTATATGTTTGCCGCCTACTTCCAATAAAATAGATTACATGCGCGTCATGCCTTTGTGGGTTACCTATTGGCCTCTGACAAAAACAAGTCGTAAGATTTGTAGCTTCCCGGTGTAAAAAGCTGGGCGCGGTCTGGCTCTCGTAGGGTGGAAAGGTCCACCAATGGCTGGTTGAGTGTAAGCTCCGGTGTCCTGGTTGTCGCAATTCCAGGCGTCGTAATAACCTATATTGCATCTGACTCTAACTCTTGTGGCTCTACTGTATCTAGTTCTTGTTCTACTAACTCTAATAATACTACTGGCTCTAATACTGAAAAACTTACATATGTTAATATAGATAATATCCTTGATCCTGATATCCCTCACGTCACTGAAGTTCGCCGAAAACGAATTTCAGATCATATCATTGAATCTCAAGGATGTACTTGCTCTGAACCTACTATAACTCCTCATGCGTTTTCATTTTCTACTCTTGGC
B2: A105-675 (nucleic acid)
DNA: CCACCCACAGCAAGAATGCCATCATCTGTCCTCACCCCCATTTCTCCCCTCCTTCCCCTGCAACCATTACGCTTACTCGCATGTGCATTGAGTGGTGCACGTGTTGAACAAACAGCTACACTCACGTGGGGGCGGGTTTTCCCGCCCTTCGGCCTCTCGCGAGGCCCACCCTTCCCCTTCCTCCCATAACTACAGTGCTTTGGTAGGTAAGCATCCTGATCCCCCGCGGAAGCTGCTCGCGTGGCAACTGTGGGGACCCAGACAGGTTATCAAAGGCACCCGGTCTTTCCGCCTCCAGGAGTATCCCTGCTAGTGAATTCTAGTGGGGCTCTGCTTGGTGCCAACCTCCCCCAAATGCGCGCTGCGGGAGTGCTCTTCCCCAACTCACCCTAGTATCCTCTCATGTGTGTGCTTGGTCAGCATATCTGAGACGATGTTCCGCTGTCCCAGACCAGTCCAGCAATGGACGGGCCAGTGTGCGTAGTCGTCTTCCGGCTTGTCCGGCGCATGTTTGGTGAACCGGTGGGGTAAGGTTGGTGTGCCCAACGCCCGTACTTTGGTGACAACTCAAGACCACCCAGGAATGCCAGGGAGGTACCCCGCCTCACGGCGGGATCTGACCCTGGGCTAATTGTCTACGGTGGTTCTTCTTGCTTCCATTTCTTTCTTCTGTTC
B3: A110-675 (nucleic acid)
DNA: ACCTTTGTGCGCCTGTTTTATACCCCCTCCCCCAACTGTAACTTAGAAGTAACACACACCGATCAACAGTCAGCGTGGCACACCAGCCACGTTTTGATCAAGCACTTCTGTTACCCCGGACTGAGTATCAATAGACTGCTCACGCGGTTGAAGGAGAAAGCGTTCGTTATCCGGCCAACTACTTCGAAAAACCTAGTAACACCGTGGAAGTTGCAGAGTGTTTCGCTCAGCACTACCCCAGTGTAGATCAGGTCGATGAGTCACCGCATTCCCCACGGGCGACCGTGGCGGTGGCTGCGTTGGCGGCCTGCCCATGGGGAAACCCATGGGACGCTCTAATACAGACATGGTGCGAAGAGTCTATTGAGCTAGTTGGTAGTCCTCCGGCCCCTGAATGCGGCTAATCCTAACTGCGGAGCACACACCCTCAAGCCAGAGGGCAGTGTGTCGTAACGGGCAACTCTGCAGCGGAACCGACTACTTTGGGTGTCCGTGTTTCATTTTATTCCTATACTGGCTGCTTATGGTGACAATTGAGAGATCGTTACCATATAGCTATTGGATTGGCCATCCGGTGACTAATAGAGCTATTATATATCCCTTTGTTGGGTTTATACCACTTAGCTTGAAAGAGGTTAAAACATTACAATTCATTGTTAAGTTGAATACAGCAAA
B4: Tropivirus A (nucleic acid)
DNA: TGTCGCATGTTGCCAACATCAAAATTCTGGGAGAGTCGCGAACTCCTTAACACTGCCTTGCCTCGACGGAGCCGTTGTTATAGTGTCGACGGGATACAAACATTAAACTAAACCCACTTGCCTCGACGGAACCCCTTACCTTTTATTTTATTTTATAGTATGAAAGTGAATCTTGTATGAATGTTCATAGAAAACTGCAAATGAGTACCACGTCTAACATGAGAGAATGATACTGGAGAAATCCAAGTTTAGAAGTCACTACGAATCCCAGCGGAAACAAGGGAATTCTGAGCTTCTAATAGGCGTTTAAGACTATTTGCAAAATTCTGGTGCGTAAGTGATATTTTCATTGCGTAGAACGCTGGTAACCACTCCGGCTAGTATAAGCATTGTTAGTCACTTATTATGAAACTCCACACTATCCTTTCTGGAGAAGCACACAAACTTACATGGTAAAGCTAGACCATTATCTTAAGCGGTGAGTACACTGCAACCTTGTAACAATGCTTGTATGACTACTTTTTGTATATCTTGAGCAATATTGTTGAGGTGGACATGTCCAAAGGTAATGTTGTTGGGAATGGAGGGGTCCATTTTCCCGTGCACGTAGTGTACTAGTATTGGGTGATAGCCTTGCGGCGGATCAACCATGTATTTTAATCCGTTGACTTTCAC
modifications: Tropivirus A
B5: 18-675 (nucleic acid)
DNA: CCCACAGCAAGAATGCCATCATCTGTCCTCACCCCCAATTTTCCCTTTTCTTCCCCTGCAACCATTACGCTTACTCGCATGTGCATTGAGTGGTGCATGTGTTGAACAAACAGCTACACTCACATGGGGGCGGGTTTTCCCGCCCTACGGCCTCTCGCGAGGCCCACCCCTTCCCTCCCCTTATAACTACAGTGCTTTGGTAGGTAAGCATCCTGATCCCCCGCGGAAGCTGCTCACGTGGCAACTGTGGGGACCCAGACAGGTTATCAAAGGCACCCGGTCTTTCCGCCTTCAGGAGTATCCCTACTAGTGAATTCTAGCGGGGCTCTGCTTGGTGCCAACCTCCCCCAAATGCGCGCTGCGGGAGTGCTCTTCCCCAACTCACCCTAGTATCCTCTCATGTGTGTGCTTGGTCAGCATATCTGAGACGATGTTCCGCTGTCCCAGACCAGTCCAGTAATGGACGGGCCAGTGCGTGTAGTCGTCTTCCGGCTTGTCCGGGGCATGTTTGGTGAACCGGTGGGGTAAGGTTGGTGTGCCCAACGCCCGTACTTTGGTGACACCTCAAGACCACCCAGGAATGCCAGGGAGGTACCCCACCTCACGGTGGGATCTGACCCTGGGCTAATTGTCTACGGTGGTTCTTCTTGCTTCCACTTCTTTCTTCTGTTCACG
B6: A115-675 (nucleic acid)
DNA: ACCTTTGTGCGCCTGTTTTATACCCCCCCCAACCTCGAAACTTAGAAGTAAAGCAAACCCGATCAATAGCAGGTGCGGCGCACCAGTCGCATCTTGATCAAGCACTTCTGTAACCCCGGACCGAGTATCAATAGACTGCTCACGCGGTTGAAGGAGAAAACGTTCGTTACCCGGCTAACTACTTCGAGAAACCCAGTAGCATCATGAAAGTTGCAGAGTGTTTCGCTCAGCACTACCCCCGTGTAGATCAGGCCGATGAGTCACCGCACTTCCCCACGGGCGACCGTGGCGGTGGCTGCGTTGGCGGCCTGCCTATGGGGCAACCCATAGGACGCTCTAATACGGACATGGTGCGAAGAGTCTATTGAGCTAGTTAGTAGTCCTCCGGCCCCTGAATGCGGCTAATCCTAACTGCGGAGCACATACCCTTAATCCAAAGGGCAGTGTGTCGTAACGGGTAACTCTGCAGCGGAACCGACTACTTTGGGTGTCCGTGTTTCCTTTTAATTTTTACTGGCTGCTTATGGTGACAATTGAGGAATTGTTGCCATATAGCTATTGGATTGGCCATCCGGTGACTAACAGAGCTATTGTGTTCCAATTTGTTGGATTTACCCCGCTCACACTCACAGTCGTAAGAACCCTTCATTACGTGTTATTTCTCAACTCAAGAAA
B7: A73-675 (nucleic acid)
DNA: TTACTCCATTCAGCTTCTTCGGAACCTGTTCGGAGGAATTAAACGGGCACCCATACTCCCCCCACCCCCCTTTTGTAACTAAGTATGTGTGCTCGTGATCTTGACTCCCACGGAACGGACCGATCCGTTGGTGAACAAACAGCTAGGTCCACATCCTCCCTTCCCCTGGGAGGGCCCCCGCCCTCCCACATCCTCCCCCCAGCCTGACGTATCACAGGCTGTGTGAAGCCCCCGCGAAAGCTGCTCACGTGGCAATTGTGGGTCCCCCCTTCATCAAGACACCAGGTCTTTCCTCCTTAAGGCTAGCCCCGGCGTGTGAATTCACGTTGGGCAACTAGTGGTGTCACTGTGCGCTCCCAATCTCGGCCGCGGAGTGCTGTTCCCCAAGCCAAACCCCTGGCCCTTCACTATGTGCCTGGCAAGCATATCTGAGAAGGTGTTCCGCTGTGGCTGCCAACCTGGTGACAGGTGCCCCAGTGTGCGTAACCTTCTTCCGTCTCCGGACGGTAGTGATTGGTTAAGATTTGGTGTAAGGTTCATGTGCCAACGCCCTGTGCGGGATGAAACCTCTACTGCCCTAGGAATGCCAGGCAGGTACCCCACCTCCGGGTGGGATCTGAGCCTGGGCTAATTGTCTACGGGTAGTTTCATTTCCAATCCTTTTATGTCGGAGTC
B8: Kobuvirus 16317 (nucleic acid, listed as Kobuvirus sp.)
DNA: TTACTCCATTCAGCTTCTTCGGAACCTGTTCGGAGGAATTAAACGGGCACCCATACACCCCCATCCCCTTTCTGCAACTTAAGTATGTGTGCTCGTGATCTTGACTCCCACGGAATGGATCGATCCGCTGGAGAACAAACTGCTAGATCCACATCCTCCCTTCCCCTGGGAGGACCTTGGTCCTCCCACATCCTCCCCCCAGCCTGACGTACCACAGGCTGTGTGAAGCCCCCGCGAAAGCTGCTCACGTGGCAATTGTGGGTCCCCCCTTCATCAAGACACCAGGTCTTTCCTCCTTAAGGCTAGCCCCGATGTGTGAATTCACATTGGGCAACTAGTGGTGTCACTGTGCGCTCCCAATCTCGGCCGCGGAGTGCTGTTCCCCAAGCCAAACCCCTGGCCCTTCACTATGTGCCTGGCAAGCATACCTGAGAAGGTGTTCCGCTGTGGCTGCCAGCCTGGTAACAGGTGCCCCAGTGTGCGTAACCTTCTTCCGTCTTCGGACGGTAGTGATTGGTTAAGATTTGGTGTAAGGTCCATGTGCCAACGCCCTGTGCGGGATGAAACCTCTACTGCCCTAGGAATGCCAGGCAGGTACCCCACCCCCGGGTGGGATCTGAGCCTGGGCTAATTGTCTACGGGTAGTTTCATTTCCAATTCTTTTATGTCGGAGTC
B9: Aichivirus Chshc7 (nucleic acid, listed as Aichivirus sp.)
DNA: B8 DNA with C58T, C75T, C94T, G97A, C428T, T500C, C537T, C567T, C606T, T659C

Tested on: HEK293 cells
Type: cell-based, human
Conditions: luminescence from secreted Gluc in supernatant 24 hours after transfection of HEK293 cells; circular RNA encoding Gluc with the named IRES (UTR truncated to 675 nt)

Row | Molecule | Expression
1 | B1 | 1.55E+06
2 | B2 | 2.18E+07
3 | B3 | 1.24E+08
4 | B4 | 9.52E+04
5 | B5 | 6.04E+07
6 | B6 | 5.93E+07
7 | B7 | 1.30E+08
8 | B8 | 2.03E+07
9 | B9 | 1.87E+07
